Results: doi:10.1101/2020.01.21.914390 (bioRxiv, 2020)

Biological target: GST tagged MYB52 fusion protein (Arabidopsis thaliana, UniProt Q6R0C4 1-249)
Test: pull-down

GST tagged MYB52 fusion protein, sequence (Q6R0C4 whole entry, the tested form may be a part): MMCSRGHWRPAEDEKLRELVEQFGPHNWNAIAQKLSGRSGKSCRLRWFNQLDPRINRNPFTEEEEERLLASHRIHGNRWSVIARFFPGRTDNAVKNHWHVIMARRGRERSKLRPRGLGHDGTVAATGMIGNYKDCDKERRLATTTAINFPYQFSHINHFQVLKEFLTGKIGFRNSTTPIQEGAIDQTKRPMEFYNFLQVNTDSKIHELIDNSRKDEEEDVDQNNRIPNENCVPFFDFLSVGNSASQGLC

B1: MBP tagged ERF4 fusion protein (ETHYLENE RESPONSIVE FACTOR4) (natural protein)
chain: not shown
  binding result: binds
